Assay results taken from patent US20190300590A1 (PROTAGONIST THERAPEUTICS, published 2019).
*1 amine or outer side, *2 acyl side, *3 side chain or, on linkers, in order; H or OH if unused. Bridges are numbered along the chain shown (N, C = ends). [ ]: non-standard residue; d: D form. Phe(4-OMe) = 4-methoxy-L-phenylalanine (O-methyl-L-tyrosine), COc1ccc(C[C@H](N[*:1])C(=O)[*:2])cc1; Phe(3,4-(OMe)2) = COc1ccc(C[C@H](N)C(=O)O)cc1OC; 1Nal = N[C@@H](Cc1cccc2ccccc12)C(=O)O; 2Nal = N[C@@H](Cc1ccc2ccccc2c1)C(=O)O; AEF = NCCOc1ccc(C[C@H](N)C(=O)O)cc1; NMeQ = CN[C@@H](CCC(N)=O)C(=O)O; Cit = NC(=O)NCCC[C@H](N)C(=O)O; αMeL = CC(C)C[C@](C)(N)C(=O)O; αMeK = C[C@](N)(CCCCN)C(=O)O; Ac6c = NC1(C(=O)O)CCCCC1; Abu = CC[C@H](N)C(=O)O; Ac4c = NC1(C(=O)O)CCC1; Ac3c = NC1(C(=O)O)CC1; AEA = NCCOCC(=O)O; βAla = NCCC(=O)O

Molecular target: T1, IL-23R on human cells (IL-23R-expressing DB cells; human NK cells) (human, UniProt Q5VWK5 24-629)
T1 sequence (looked up): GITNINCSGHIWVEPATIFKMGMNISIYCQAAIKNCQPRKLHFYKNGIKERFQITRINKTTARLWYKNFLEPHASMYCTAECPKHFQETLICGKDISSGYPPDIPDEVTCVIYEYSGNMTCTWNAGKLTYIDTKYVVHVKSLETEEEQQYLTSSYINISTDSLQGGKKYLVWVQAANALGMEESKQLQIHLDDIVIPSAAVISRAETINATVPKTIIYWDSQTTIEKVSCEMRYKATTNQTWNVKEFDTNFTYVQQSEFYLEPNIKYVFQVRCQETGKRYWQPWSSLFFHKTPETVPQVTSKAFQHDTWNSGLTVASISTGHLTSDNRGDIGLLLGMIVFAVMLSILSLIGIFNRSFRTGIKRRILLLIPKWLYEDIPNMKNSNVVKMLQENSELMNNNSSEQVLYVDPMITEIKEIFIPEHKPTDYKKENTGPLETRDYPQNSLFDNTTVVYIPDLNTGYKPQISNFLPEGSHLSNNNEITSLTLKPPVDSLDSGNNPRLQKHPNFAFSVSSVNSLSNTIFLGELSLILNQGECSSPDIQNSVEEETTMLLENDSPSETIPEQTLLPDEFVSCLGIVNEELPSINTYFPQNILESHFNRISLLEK
Test: cell-based or functional assay

Question: Which “pStat3 HTRF IC50” value does the source give for Ac-[Abu]QTWQC[AEF][2Nal][Ac4c]ENN-NH2 (thioether 1-6) [Ac-Cyclo-[[Abu]-QTWQC]-[Phe[4-(2-aminoethoxy)]]-[2-Nal]-[Acbc]-ENN-NH2] here?
Answer: < 10 nM

Question: For Ac-[Abu]QTWQC[AEF][2Nal][αMeL]QN[βAla]-NH2 (thioether 1-6) [Ac-Cyclo-[[Abu]-QTWQC]-[Phe[4-(2-aminoethoxy)]]-[2-Nal]-[α-MeLeu]-QN-[βAla]-NH2], which “pStat3 HTRF IC50” value is on record?
Answer: < 10 nM

Question: Ac-[Abu]QTWQC[AEF][2Nal][Ac6c]ENN-NH2 (thioether 1-6) [Ac-Cyclo-[[Abu]-QTWQC]-[Phe[4-(2-aminoethoxy)]]-[2-Nal]-[Achc]-ENN-NH2] was tested. Which “pStat3 HTRF IC50” value did it give?
Answer: < 10 nM

Question: With Ac-[Abu]QTWQC[Phe(4-OMe)][2Nal][αMeK]ENG-NH2 (thioether 1-6) [Ac-Cyclo-[[Abu]-QTWQC]-[Phe(4-OMe)]-[2-Nal]-[α-MeLys]-ENG-NH2] as the binder, how does the “pStat3 HTRF IC50” value read?
Answer: < 10 nM

Question: With Ac-[Abu]QTWQC[AEF][Phe(3,4-(OMe)2)][αMeK]K(Ac)NG-NH2 (thioether 1-6) [Ac-Cyclo-[[Abu]-QTWQC]-[Phe[4-(2-aminoethoxy)]]-[Phe(3,4-OMe2]-[α-MeLys]-[Lys(Ac)]-NG-NH2] as the binder, how does the “pStat3 HTRF IC50” value read?
Answer: < 10 nM

Molecular target: T1, IL-23R on human cells …
Test: cell-based or functional assay
Remark: another data set of the same source

Question: How did the “NK cell assay IC50 (IFNγ)” value turn out when Ac-[Abu]QTWQC[AEF][2Nal][Ac4c]ENN-NH2 (thioether 1-6) [Ac-Cyclo-[[Abu]-QTWQC]-[Phe[4-(2-aminoethoxy)]]-[2-Nal]-[Acbc]-ENN-NH2] was run?
Answer: < 25 nM

Question: With Ac-[Abu]QTWQC[AEF][2Nal][αMeL]QN[βAla]-NH2 (thioether 1-6) [Ac-Cyclo-[[Abu]-QTWQC]-[Phe[4-(2-aminoethoxy)]]-[2-Nal]-[α-MeLeu]-QN-[βAla]-NH2] as the binder, how does the “NK cell assay IC50 (IFNγ)” value read?
Answer: < 25 nM

Question: Which “NK cell assay IC50 (IFNγ)” value does the source give for Ac-[Abu]QTWQC[AEF][2Nal][Ac6c]ENN-NH2 (thioether 1-6) [Ac-Cyclo-[[Abu]-QTWQC]-[Phe[4-(2-aminoethoxy)]]-[2-Nal]-[Achc]-ENN-NH2] here?
Answer: < 25 nM

Question: For Ac-[Abu]QTWQC[AEF][2Nal][Ac3c]ENN-NH2 (thioether 1-6) [Ac-Cyclo-[[Abu]-QTWQC]-[Phe[4-(2-aminoethoxy)]]-[2-Nal]-]Acpc]-ENN-NH2], which “NK cell assay IC50 (IFNγ)” value is on record?
Answer: < 25 nM

Question: FXQTWQCFXXENN (as bracketed in name; thioether cyclo) was tested. Which “NK cell assay IC50 (IFNγ)” value did it give?
Answer: < 25 nM

Question: With Ac-[Abu]QTWQC[Phe(4-OMe)][2Nal][αMeK]ENG-NH2 (thioether 1-6) [Ac-Cyclo-[[Abu]-QTWQC]-[Phe(4-OMe)]-[2-Nal]-[α-MeLys]-ENG-NH2] as the binder, how does the “NK cell assay IC50 (IFNγ)” value read?
Answer: < 25 nM

Question: Ac-[Abu]QTWQC[AEF][Phe(3,4-(OMe)2)][αMeK]K(Ac)NG-NH2 (thioether 1-6) [Ac-Cyclo-[[Abu]-QTWQC]-[Phe[4-(2-aminoethoxy)]]-[Phe(3,4-OMe2]-[α-MeLys]-[Lys(Ac)]-NG-NH2] was tested. Which “NK cell assay IC50 (IFNγ)” value did it give?
Answer: < 25 nM

Molecular target: T2, Rat IL-23R_huFC (rat; human, UniProt F1LX96 39-369)
T2 sequence: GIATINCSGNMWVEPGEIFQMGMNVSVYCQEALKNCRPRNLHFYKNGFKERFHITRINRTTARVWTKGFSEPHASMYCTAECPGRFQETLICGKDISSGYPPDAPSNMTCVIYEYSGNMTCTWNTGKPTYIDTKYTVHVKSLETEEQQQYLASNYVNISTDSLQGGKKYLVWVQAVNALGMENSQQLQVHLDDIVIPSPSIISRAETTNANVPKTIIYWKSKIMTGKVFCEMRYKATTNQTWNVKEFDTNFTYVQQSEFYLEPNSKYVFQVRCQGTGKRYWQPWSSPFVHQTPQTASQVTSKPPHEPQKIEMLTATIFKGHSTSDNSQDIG
Test: rat IL-23R competitive ELISA

Question: For CXTWQCYWRVFGXK (Ac-; [Cit]; [AEA]; [(D)Lys]; -NH2) [Ac-C-[Cit]-TWQCYWRVFG-[AEA]-[(D)Lys]-NH2], which IC50 is on record?
Answer: 76 nM

Question: Which IC50 does the source give for Ac-CRTWQCYWRENGA[dK]-NH2 (cysteine pairing not given here) [Ac-CRTWQCYWRENGA-[(D)Lys]-NH2] here?
Answer: 86 nM

Question: Which IC50 does the source give for Ac-CRTWQCYWREYGA[dK]-NH2 (cysteine pairing not given here) [Ac-CRTWQCYWREYGA-[(D)Lys]-NH2] here?
Answer: 80 nM

Question: For Ac-CADWVCYWRKFG[βAla][dK]-NH2 (cysteine pairing not given here) [Ac-CADWVCYWRKFG-[βAla]-[(D)Lys]-NH2], which IC50 is on record?
Answer: 33 nM

Question: How did the IC50 turn out when CXTWQCYWRVFGXK (Ac-; [AEA]; [(D)Lys]; -NH2) [Ac-C-CYWRVFG-[AEA]-[(D)Lys]-NH2, listing 1 of 2 here] was run?
Answer: 51 nM

Question: Ac-CQTWQCYWRVFG[AEA][dK]-NH2 (disulfide 1-6 (inferred)) [Ac-CQTWQCYWRVFG-[AEA]-[(D)Lys]-NH2] was tested. Which IC50 did it give?
Answer: 62 nM

Question: CRTWQCYWRVFGXK (not fully specified; Ac-; [N-MeArg]; [AEA]; [(D)Lys]; -NH2) [Ac-C-[N-MeArg]-TWQCYWRVFG-[AEA]-[(D)Lys]-NH2] was tested. Which IC50 did it give?
Answer: 192 nM

Question: For Ac-CADWVCY[1Nal][Cit]VFG[βAla][dK]-NH2 (disulfide 1-6 (inferred)) [Ac-CADWVCY-[1-Nal]-[Cit]-VFG-[β-Ala]-[(D)Lys]-NH2], which IC50 is on record?
Answer: 22 nM

Question: With Ac-C[NMeQ]TWQCYWRVFG[AEA][dK]-NH2 (disulfide 1-6 (inferred)) [Ac-C-[N-MeQln]-TWQCYWRVFG-[AEA]-[(D)Lys]-NH2] as the binder, how does the IC50 read?
Answer: 85 nM

Question: How did the IC50 turn out when Ac-CNTWQCYWRVFG[AEA][dK]-NH2 (disulfide 1-6 (inferred)) [Ac-CNTWQCYWRVFG-[AEA]-[(D)Lys]-NH2] was run?
Answer: 79 nM

Question: How did the IC50 turn out when CXTWQCYWRVFGXK (Ac-; [AEA]; [(D)Lys]; -NH2) [Ac-C-CYWRVFG-[AEA]-[(D)Lys]-NH2, listing 2 of 2 here] was run?
Answer: 100 nM

Molecular target: Rat IL-23R_huFC (rat)
Test: rat ELISA vs IL-23

Question: Ac-[Abu]QTWQC[Phe(4-OMe)][2Nal][αMeK]ENG-NH2 (thioether 1-6) [Ac-Cyclo-[[Abu]-QTWQC]-[Phe(4-OMe)]-[2-Nal]-[α-MeLys]-ENG-NH2] was tested. Which IC50 did it give?
Answer: 10 to 25 nM

Molecular target: Rat IL-23R_huFC (rat)
Test: rat ELISA vs IL-23
Remark: another data set of the same source

Question: How did the IC50 turn out when Ac-[Abu]QTWQC[AEF][Phe(3,4-(OMe)2)][αMeK]K(Ac)NG-NH2 (thioether 1-6) [Ac-Cyclo-[[Abu]-QTWQC]-[Phe[4-(2-aminoethoxy)]]-[Phe(3,4-OMe2]-[α-MeLys]-[Lys(Ac)]-NG-NH2] was run?
Answer: 25 to 100 nM

Molecular target: T3, IL23R_huFC (human, UniProt Q5VWK5 24-353)
T3 sequence (looked up): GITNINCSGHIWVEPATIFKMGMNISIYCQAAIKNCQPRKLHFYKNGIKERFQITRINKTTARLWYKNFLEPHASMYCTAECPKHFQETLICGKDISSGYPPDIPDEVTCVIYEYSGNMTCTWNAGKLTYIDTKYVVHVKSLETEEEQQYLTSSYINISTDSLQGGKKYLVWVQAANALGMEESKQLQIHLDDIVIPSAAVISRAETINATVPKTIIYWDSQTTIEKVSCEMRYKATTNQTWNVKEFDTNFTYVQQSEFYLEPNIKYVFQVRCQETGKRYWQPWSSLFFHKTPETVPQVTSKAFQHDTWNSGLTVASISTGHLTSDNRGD
Test: human ELISA vs IL-23

Question: Ac-[Abu]QTWQC[Phe(4-OMe)][2Nal][αMeK]ENG-NH2 (thioether 1-6) [Ac-Cyclo-[[Abu]-QTWQC]-[Phe(4-OMe)]-[2-Nal]-[α-MeLys]-ENG-NH2] was tested. Which IC50 did it give?
Answer: 10 to 25 nM

Question: Ac-[Abu]QTWQC[AEF][Phe(3,4-(OMe)2)][αMeK]K(Ac)NG-NH2 (thioether 1-6) [Ac-Cyclo-[[Abu]-QTWQC]-[Phe[4-(2-aminoethoxy)]]-[Phe(3,4-OMe2]-[α-MeLys]-[Lys(Ac)]-NG-NH2] was tested. Which IC50 did it give?
Answer: 10 to 25 nM

Molecular target: Rat IL-23R_huFC (rat)
Test: rat ELISA vs IL-23
Remark: another data set of the same source

Question: For Ac-CRTWQ[Abu]YWRKFG[AEA][dK]-NH2 (thioether 1-6) [Ac-Cyclo-[CRTWQ-[Abu]]-YWRKFG-[AEA]-[(D)Lys]-NH2], which IC50 is on record?
Answer: 100 to 1000 nM
